B1: HESX1 (parent)
chain: QKKDCVPLMKPHRPWADTCSSSGK
B2: ESRRA (parent)
chain: SLPLQDELAFAEDLVLDEEGARAA

Variants of: B1
Assay: protein stability index of a GFP-peptide fusion (GPS, HEK-293T) (PSI 1-6); higher = more stable
Conditions: c terminus: a fixed tail appended
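Further: lentivirally expressed fusions sorted by FACS into six bins by GFP to DsRed ratio, PSI derived from sequencing read proportions per bin multiplied by bin number.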

Protein stability index: each site, then its substitutions
K24: Y 1.98 | V 2.55 | Q 3.57 | P 3.18 | F 2.56 | T 2.85 | W 1.98 | N 2.97 | G 3.62 | L 1.78 | I 2.51 | H 2.46 | M 2.05 | S 2.23

Variants of: B2
Assay: as above
Conditions: c terminus: a fixed tail appended

Protein stability index: each site, then its substitutions
L2: Q 3.95 | M 3.48 | D 5.55 | E 5.29 | A 4.07 | N 3.86 | G 4.81 | F 3.06 | W 2.69 | R 2.55 | Y 3.22 | K 4.4 | H 2.78 | T 3.52 | C 2.32 | P 4.27 | I 2.78 | S 4.21 | V 3.26
V15: S 5.76 | W 4.85 | Q 5.49 | G 5.55 | R 5.42 | C 4.28 | K 5.57 | Y 5.25 | T 5.28 | D 4.89 | E 5.82 | L 3.92 | I 3.18 | N 5.68 | H 5.45 | F 5.55 | P 5.37 | A 4.6 | M 4.79
P3: G 4.7 | A 4.97 | T 4.8 | K 5.08 | V 4.91 | Q 4.21 | I 3.93 | D 4.14 | C 4.78 | M 4.18 | N 4.08 | Y 4.61 | R 4.46 | F 4.6 | H 4.45 | S 5.28 | W 4.32 | E 4.97 | L 4.84
D13: E 2.92 | P 5.46 | T 3.71 | H 2.98 | Q 3.68 | K 3.81 | S 3.37 | C 2.31 | V 1.85 | L 2.68 | A 3.48 | M 3.83 | N 2.79 | I 1.96 | W 3.31 | R 3.68 | G 2.44 | F 3.31 | Y 2.64
Q5: M 2.48 | D 5.44 | W 2.29 | C 3.7 | G 4.43 | Y 2.96 | L 3.02 | I 3.37 | E 5.48 | V 3.64 | T 5.34 | R 3.37 | F 3.85 | N 3.77 | H 3.66 | K 2.79 | A 3.25 | P 4.94 | S 4.79
L4: F 4.96 | T 5.43 | N 5.36 | R 5.1 | W 5.32 | Y 5.26 | K 5.08 | S 5.39 | P 5.46 | M 3.51 | G 5.68 | I 4.43 | C 5.1 | D 4.97 | A 5.45 | H 5.41 | V 5.02 | E 5.59 | Q 5.64
D6: G 3.37 | W 2.78 | F 2.73 | H 2.45 | L 3.26 | V 2.5 | M 3.77 | K 2.81 | I 2.26 | P 4.04 | Y 2.02 | S 3.25 | T 2.89 | R 2.65 | C 2.42 | N 2.92 | E 2.67 | A 3.27 | Q 2.91
A9: K 2.63 | W 3.68 | R 3.38 | Q 3.61 | C 4.11 | P 5.74 | F 4.56 | S 3.42 | E 4.7 | T 2.63 | Y 4.19 | I 4.8 | N 3.88 | L 3.45 | D 5.39 | M 3.2 | V 4.88 | G 4.01 | H 3.67
A11: I 4.73 | E 5.54 | K 4.98 | D 5.57 | Q 5.56 | M 5.4 | G 5.17 | P 5.53 | V 5.07 | F 4.89 | R 5.65 | N 5.7 | W 3.02 | T 4.23 | C 5.35 | L 4.97 | Y 4.66 | H 5.54 | S 4.13
S1: D 3.07 | A 3.94 | T 3.01 | H 2.89 | V 2.89 | R 3.28 | L 2.26 | E 2.94 | P 3.54 | C 2.93 | W 2.73 | I 3.03 | Y 2.78 | G 2.81 | F 2.48 | Q 3.09 | M 2.66 | N 2.81 | K 3.09
E7: F 3.92 | G 5.2 | Q 3.56 | T 4.4 | M 3.26 | R 4.96 | H 3.94 | A 2.41 | K 4.84 | L 3.66 | V 2.03 | N 4.51 | Y 3.88 | I 2.46 | C 3.5 | S 3.29 | D 3.63 | W 4.16 | P 5.58
F10: K 2.83 | W 2.96 | S 3.04 | G 4.26 | R 3.57 | E 4.35 | V 3.69 | H 3.44 | Q 3.98 | P 5.69 | T 3.77 | A 4.18 | C 3.36 | I 3.63 | N 4.03 | M 2.52 | D 4.18 | Y 3.54 | L 2.5
E12: G 4.91 | V 4.82 | S 5.26 | W 5.05 | C 5.04 | H 4.72 | M 4.88 | Q 4.71 | R 4.36 | L 4.42 | I 3.8 | Y 4.2 | T 5.41 | D 5.35 | P 5.03 | F 4.52 | K 5.28 | N 5.53 | A 5
L14: D 5.5 | W 4.92 | Q 3.5 | S 4.7 | T 5.13 | N 5.38 | K 4.89 | G 5.57 | R 4.2 | P 5.8 | C 3.46 | I 4.3 | E 4.62 | Y 5.32 | F 5.22 | A 4.45 | M 3.29 | V 4.41 | H 5.42
L16: V 4.15 | M 3 | C 3.63 | T 4.72 | N 4.59 | W 3.23 | G 4.85 | S 4.91 | H 3.6 | D 5.66 | E 5.2 | R 3.55 | A 3.83 | K 3.24 | P 5.75 | Q 3.54 | I 3.88 | Y 2.44 | F 3.7
L8: T 4.84 | H 5.5 | D 5.43 | N 5.54 | E 5.55 | Q 5.29 | R 5.66 | C 5.51 | F 5.13 | W 5.29 | V 5.84 | I 5.34 | K 5.45 | G 5.2 | S 5.63 | P 5.3 | Y 4.77 | M 2.99 | A 5.07
D17: S 2.69 | R 3.13 | A 2.89 | M 2.03 | K 2.46 | P 4.71 | E 3.7 | F 2.93 | L 2.71 | Q 3.31 | T 3.57 | I 2.45 | G 2.15 | H 3.47 | N 2.86 | C 2.78

Reference: the supplement of paper PMC10567573
